The target in this assay is fluorescein labeled SecYEG reconstituted in proteoliposomes (E. coli) (UniProt P0AGA2). Description: FRET or BRET; DCFBA-FRET on single proteoliposomes; SecYEG-FM (donor, 488 nm excitation) in PLs, proOmpA(C282)-DhfR-Atto647N (acceptor) in complex with SecB, SecA, NADPH and methotrexate, with or without ATP; in hydrogel of gelator 1 and in suspension; stalled translocation intermediate. In general terms: BRET reads energy transfer from a luciferase to a nearby fluorophore.
UniProt P0AGA2, sequence (P0AGA2 whole entry, chain 1 of 3): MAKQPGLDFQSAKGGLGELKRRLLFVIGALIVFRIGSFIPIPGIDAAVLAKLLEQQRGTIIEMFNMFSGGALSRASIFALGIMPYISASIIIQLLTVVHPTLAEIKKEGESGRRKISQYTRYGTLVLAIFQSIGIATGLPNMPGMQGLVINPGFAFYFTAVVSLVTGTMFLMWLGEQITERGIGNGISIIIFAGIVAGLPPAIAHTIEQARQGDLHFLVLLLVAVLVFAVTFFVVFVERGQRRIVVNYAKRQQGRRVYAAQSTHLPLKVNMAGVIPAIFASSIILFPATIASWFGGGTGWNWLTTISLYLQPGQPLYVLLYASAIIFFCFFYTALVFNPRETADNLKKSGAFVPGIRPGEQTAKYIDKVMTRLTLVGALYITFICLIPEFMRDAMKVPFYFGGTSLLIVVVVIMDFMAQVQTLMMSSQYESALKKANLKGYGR
UniProt P0AGA2, sequence (P0AG96 whole entry, chain 2 of 3, further chain): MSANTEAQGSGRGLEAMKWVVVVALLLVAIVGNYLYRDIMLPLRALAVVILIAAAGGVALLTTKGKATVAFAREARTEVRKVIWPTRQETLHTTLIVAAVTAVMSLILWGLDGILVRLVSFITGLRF
UniProt P0AGA2, sequence (P0AG99 whole entry, chain 3 of 3, further chain): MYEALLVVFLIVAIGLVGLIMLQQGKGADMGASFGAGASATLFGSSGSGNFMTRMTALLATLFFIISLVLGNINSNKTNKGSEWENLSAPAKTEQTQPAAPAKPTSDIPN

Take “fusion protein proOmpA(C282)-DhfR-Atto647N”: the average FRET efficiency per liposome in the hydrogel compared to suspension turned out to be 50%.

For the origin of these results see article PMC3105061.
